Measured values from patent publication US20140288000A1 (University of California, published 2014).

B1: plasmin-inhibiting polypeptide comprising the amino acid sequence set forth in SEQ ID NO:4 (designed binder)
chain: NAEICLLPLDTGPCRARLLRYYYDRYTQSCRQFLYGGCEGNANNFYTWEACDDACWRIEKVPK
B2: plasmin-inhibiting polypeptide comprising the amino acid sequence set forth in SEQ ID NO:6 (designed binder)
chain: NAEICLLPLDYGPCRARLLRYYYDRYTQSCRQFLYGGCEGNANNFYTWEACDDACWRIEKVPK
B3: plasmin-inhibiting polypeptide comprising the amino acid sequence set forth in SEQ ID NO:5 (designed binder)
chain: NAEICLLPLDYGPCRARLLRYYYDRYTQSCRQFLYGGCEGNANNFYTWEACDDACWRIEK
B4: plasmin-inhibiting polypeptide comprising the amino acid sequence set forth in SEQ ID NO:3 (designed binder)
chain: NAEICLLPLDTGPCRARLLRYYYDRYTQSCRQFLYGGCEGNANNFYTWEACDDACWRIEK

Biological target: human plasmin (human, UniProt P00747 97-810, limits assumed)
Sequence (P00747 97-810 limits assumed): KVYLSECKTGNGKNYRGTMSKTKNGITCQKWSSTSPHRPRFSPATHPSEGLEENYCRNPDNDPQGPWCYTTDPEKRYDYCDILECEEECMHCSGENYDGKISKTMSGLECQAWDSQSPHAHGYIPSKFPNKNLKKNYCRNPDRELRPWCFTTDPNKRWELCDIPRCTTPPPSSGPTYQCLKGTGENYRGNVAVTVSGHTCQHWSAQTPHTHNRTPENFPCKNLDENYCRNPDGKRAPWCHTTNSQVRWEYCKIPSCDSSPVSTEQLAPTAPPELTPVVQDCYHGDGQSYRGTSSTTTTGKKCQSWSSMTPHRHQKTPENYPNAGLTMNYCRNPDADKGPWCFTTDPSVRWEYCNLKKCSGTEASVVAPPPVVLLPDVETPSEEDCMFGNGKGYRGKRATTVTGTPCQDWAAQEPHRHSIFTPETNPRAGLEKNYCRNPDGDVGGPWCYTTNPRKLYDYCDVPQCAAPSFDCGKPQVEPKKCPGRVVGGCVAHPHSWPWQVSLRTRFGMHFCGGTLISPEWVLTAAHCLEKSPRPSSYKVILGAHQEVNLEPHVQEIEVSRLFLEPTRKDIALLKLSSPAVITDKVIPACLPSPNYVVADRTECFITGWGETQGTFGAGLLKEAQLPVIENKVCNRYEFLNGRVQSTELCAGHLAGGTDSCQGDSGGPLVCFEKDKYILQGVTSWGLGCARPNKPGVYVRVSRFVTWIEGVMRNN
Assay: cell-based or functional assay

Binder	IC50 (nM), inhibition of plasmin activity on chromogenic substrate S2251
B1	0.8 nM
B2	1.8 nM
B3	3.4 nM
B4	1.8 nM
